Source: paper PMC8746653, “Biochemical and Structural Analysis of a Glucose-Tolerant β-Glucosidase from the Hemicellulose-Degrading Thermoanaerobacterium saccharolyticum” (Molecules, 2022)
Blank lines part the entries; values can stand above or below the molecule they belong to.

How the values were obtained:
[1] = target: T1, TsaBgl (Thermoanaerobacterium saccharolyticum, UniProt I3VXG7); assay: pNPG hydrolysis, pNP release at […] nm, inhibitor titration; assay type: biochemical; settings: read-out: concentration that reduced the enzyme activity by half
T1 construct: gene Tsac_2208

[2] = target: T1, TsaBgl; assay: X-ray crystal structure, […] Å; assay type: binding; settings: Tris from buffer bound at active site, contacts Glu163 and Glu351; crystallised in 0.1 M Tris-HCl pH 7.0
[3] = substrate: O=[N+]([O-])c1ccc(O[C@@H]2O[C@H](CO)[C@@H](O)[C@H](O)[C@H]2O)cc1; assay: purified protein; settings: 100 mM sodium phosphate pH 6.0, 55 °C, 0-10 mM pNPG

IC50 [1]: ~10 mM
Molecule: NC(CO)(CO)CO [Tris]
X-ray crystal structure, 1.70 Å [2]: one Tris molecule was bound to the active site

B1: TsaBgl (Thermoanaerobacterium saccharolyticum JW/SL-YS485) (protein)
chain: MLDFSKDFLFGVATASYQVEGAYNEDGRTMSIWDTFSRQDGKVYKSHNGDVACDHYHLYKDDVKMMKDLGIEAYRFSIAWPRIFPAKGQYNPKGMDFYKRLTDELLKNDIKPFATIYHWDLPQWADDLGGWLNREIVEWYGEYAEKLFSELGGYIKNWITLNEPWCSSFLSYFIGEHAPGHKDLGEALLVSHNLLLSHGKAVEIFRGLNLDDSKIGITLNLNEVFPASDSDDDKVAAQIADGFQNRWFLDPLFKGKYPQDMVEYFGKYAKVDFINDEDLKLISQKLDFLGVNYYTRAVVQKGNDGLLDAVQIDPGNERTEMGWEIYPESLYNILMRLKREYTYDMPLYITENGAAFNDVVEDDGRVHDEKRVEFLKQHFKEAKRFLNDGGNLKGYFVWSLMDNFEWAHGYSKRFGIVYVDYETEKRILKDSALWYKDLISTRTI
Km [3]: 0.36 ± 0.02 mM | kcat [3]: 18.6 s⁻¹ | kcat/Km [3]: 51000 M⁻¹ s⁻¹
